Positions count from the first letter of the chain named. Square brackets hold non-standard residues; d marks the D form. Peptide text beside a SMILES is read from it. * marks the point of attachment. Dolaproine = CO[C@@H]([C@@H]1CCCN1)[C@@H](C)C(=O)O; Dil = CC[C@H](C)[C@H](NC)[C@@H](CC(=O)O)OC; X1 = C[C@@H](N*)[C@@H](O)c1ccccc1; NMeV = CN[C@H](C(=O)O)C(C)C
T1: mTEM8-Fc (Mus musculus, UniProt Q9CZ52)
T1 construct: Fc
T1 sequence (Q9CZ52 31-319 limits assumed): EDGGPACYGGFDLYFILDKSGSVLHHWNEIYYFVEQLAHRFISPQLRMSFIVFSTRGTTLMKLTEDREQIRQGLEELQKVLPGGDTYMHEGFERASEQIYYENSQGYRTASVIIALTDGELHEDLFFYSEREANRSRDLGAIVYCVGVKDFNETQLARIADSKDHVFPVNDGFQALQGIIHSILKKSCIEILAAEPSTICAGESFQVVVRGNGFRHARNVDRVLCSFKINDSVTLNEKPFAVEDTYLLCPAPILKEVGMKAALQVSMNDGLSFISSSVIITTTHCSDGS

T2: hTEM8-AP (Homo sapiens, UniProt Q9H6X2)
T2 sequence (Q9H6X2 33-321 limits assumed): T1 sequence (Q9CZ52 31-319 limits assumed) with R40K, S104R, A241S

B1: M863: TEM8 monoclonal antibody (hIgG1), VH SEQ ID NO:7 and VL SEQ ID NO:8 (antibody, V domains shown)
VH: EVQLVETGAEVKKPGASVKVSCKASGYTFTGYYMHWVRQAPGQGLEWMGWINPTSGSTNYAQKFQGRVTMTRDTSISTAYMELSGLRSDDTAVYYCVRDPGSPKWLAFDPWGQGTLVTVSS
VL: DIQLTQSPSSLSASVGDRVTITCRASRAISRYLNWYQQKPGKAPKLLIYAASSLQSGVSSRFSGSGSGTEFTLTISSLQPEDFATYFCQQTYSPPITFGQGTRLEIKR
modifications: TEM863 mAb VH; TEM863 mAb VL

How the values were obtained:
[1] = tested on: OVCAR3 ovarian cancer model; experiment: M825 and M825-MMAE in OVCAR3 ovarian cancer model; assay type: in vivo, mice; conditions: 0.2 mg/kg, equivalent to maximum MMAE in the 10 mg/kg ADC group
Method: Treatment initiated when tumor volume reached approximately 120 mm^3. M825 was given i.v. at 10 mg/kg and M825-MMAE was given i.v. at 1, 3, or 10 mg/kg, 2 times per week for 3.5 weeks. […] The 10 mg/kg ADC group was redosed on Day 56, 2 times per week.

[2] = tested on: 3T3 fibroblasts; experiment: Contractility of 3T3 fibroblasts in the presence of TGFb-1; assay type: cell-based; conditions: in vitro
Method: 3T3 cells were cultured and contractility in the presence of TGFb-1 was measured in control or M825 exposed cells. […] Contractile forces are thought to contribute to increased cancer cell invasion.

[3] = Pharmacokinetics of TEM8 antibodies in mouse, multiple dose; assay type: in vivo
Description: (§1) Tables 8 and 9 show pharmacokinetic properties of TEM8 antibodies according to the present invention in mouse for single dose (Table 8) and multiple dose (Table 9) treatments.

[4] = molecular target: T1, mTEM8-Fc; experiment: Biocore affinity measurement of anti-TEM8 Fabs, mTEM8-Fc; assay type: binding
[5] = Pharmacokinetics of TEM8 antibodies in mouse, single dose; assay type: in vivo
Description: as §1

[6] = molecular target: T2, hTEM8-AP; experiment: Biocore affinity measurement of anti-TEM8 Fabs, hTEM8-AP; assay type: binding

| Molecule | AUCI ([3]; 5 mg/kg) [µg·h/mL] | AUCT ([3]; 5 mg/kg) [µg·h/mL] | CLF ([3]; 5 mg/kg) [mL/h/kg] | CMAX ([3]; 5 mg/kg) [ng/mL] | HALF ([3]; 5 mg/kg) [h] | KEL ([3]; 5 mg/kg) [h⁻¹] | TMAX ([3]; 5 mg/kg) [h] | VZF ([3]; 5 mg/kg) [L/kg] | AUCI ([3]; 15 mg/kg) [µg·h/mL] | AUCT ([3]; 15 mg/kg) [µg·h/mL] | CLF ([3]; 15 mg/kg) [mL/h/kg] | CMAX ([3]; 15 mg/kg) [ng/mL] | HALF ([3]; 15 mg/kg) [h] | KEL ([3]; 15 mg/kg) [h⁻¹] | TMAX ([3]; 15 mg/kg) [h] | VZF ([3]; 15 mg/kg) [L/kg] | AUCI ([5]; 5 mg/kg) [µg·h/mL] | AUCT ([5]; 5 mg/kg) [µg·h/mL] | CLF ([5]; 5 mg/kg) [mL/h/kg] | CMAX ([5]; 5 mg/kg) [ng/mL] | further results |
| --- | --- | --- | --- | --- | --- | --- | --- | --- | --- | --- | --- | --- | --- | --- | --- | --- | --- | --- | --- | --- | --- |
| CC[C@H](C)[C@@H]([C@@H](CC(=O)N1CCC[C@H]1[C@H](OC)[C@@H](C)C(=O)N[C@H](C)[C@@H](O)c1ccccc1)OC)N(C)C(=O)[C@@H](NC(=O)[C@@H](NC)C(C)C)C(C)C [MMAE, monomethylauristatin (MMAE), reference compound] (H-[NMeV]V[Dil][Dolaproine]-X1) |  |  |  |  |  |  |  |  |  |  |  |  |  |  |  |  |  |  |  |  | effect on tumor growth [1]: No effect |
| M825: TEM8 monoclonal antibody (hIgG1), VH SEQ ID NO:1 and VL SEQ ID NO:2 | 1408.345 | 1408.201 | 3.55 | 54300 | 9.10 | 0.0762 | 3 | 0.04661 | 21649.446 | 21648.879 | 0.69 | 314000 | 17.05 | 0.0406 | 3 | 0.01705 | 1310.519 | 1310.222 | 3.82 | 46800 | contractility of activated 3T3 fibroblasts [2]: block the contractility; ka [4]: 1.7e+06 M⁻¹ s⁻¹; kd [4]: 8.942e-05 s⁻¹; HALF ([5]; 5 mg/kg): 6.03 h; KEL ([5]; 5 mg/kg): 0.1149 h⁻¹; TMAX ([5]; 5 mg/kg): 3 h; VZF ([5]; 5 mg/kg): 0.03319 L/kg; AUCI ([5]; 15 mg/kg): 9239.202 µg·h/mL; AUCT ([5]; 15 mg/kg): 8991.767 µg·h/mL; CLF ([5]; 15 mg/kg): 1.62 mL/h/kg; CMAX ([5]; 15 mg/kg): 144000 ng/mL; HALF ([5]; 15 mg/kg): 23.77 h; KEL ([5]; 15 mg/kg): 0.0292 h⁻¹; TMAX ([5]; 15 mg/kg): 3 h; VZF ([5]; 15 mg/kg): 0.05566 L/kg; ka [6]: 3.05e+06 M⁻¹ s⁻¹; kd [6]: 0.0001802 s⁻¹ |
| B1 | 1425.735 | 1425.565 | 3.51 | 58600 | 14.29 | 0.0485 | 3 | 0.07228 | 7272.672 | 7271.7 | 2.06 | 147000 | 12.64 | 0.0549 | 3 | 0.0376 | 1330.847 | 1330.742 | 3.76 | 51300 | HALF ([5]; 5 mg/kg): 8.59 h; KEL ([5]; 5 mg/kg): 0.0807 h⁻¹; TMAX ([5]; 5 mg/kg): 3 h; VZF ([5]; 5 mg/kg): 0.04656 L/kg; AUCT ([5]; 15 mg/kg): 10721.535 µg·h/mL; CMAX ([5]; 15 mg/kg): 355000 ng/mL; TMAX ([5]; 15 mg/kg): 3 h |
